# According to the supplement of paper PMC9112550, “Optimization of the antimicrobial peptide Bac7 by deep mutational scanning” (BMC Biology, 2022):
# Test system: Escherichia coli TOP10
# Test: shrunken log2 fold change of peptide-encoding DNA abundance (4.5 h post-induction vs induction); higher = less antimicrobial activity (less host growth inhibition)
# Conditions: time post-induction: 4.5 h; library: site-saturation at positions 5, 18, 19, 20
# 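Further: peptides expressed intracellularly from a pBAD plasmid library in pooled LB shake-flask culture, induced with 0.3% L-arabinose, DNA abundance read by NGS, three biological replicates, DESeq2 with apeglm shrinkage.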
row,Sequence,shrunken log2 fold change
1,RRIRKRPPRLPRPRPRPTCMPRP,0.576
2,RRIRRRPPRLPRPRPRPLRPPRP,1.18
3,RRIRIRPPRLPRPRPRPSPVPRP,-0.297
4,RRIRTRPPRLPRPRPRPMYYPRP,0.0219
5,RRIRCRPPRLPRPRPRPDSLPRP,-0.0818
6,RRIRGRPPRLPRPRPRPQGDPRP,0.824
7,RRIRLRPPRLPRPRPRPGETPRP,-0.0544
8,RRIRDRPPRLPRPRPRPDEIPRP,0.0508
9,RRIRWRPPRLPRPRPRPDCGPRP,0.885
10,RRIRERPPRLPRPRPRPKHEPRP,-0.205
11,RRIRDRPPRLPRPRPRPSPTPRP,-0.0251
12,RRIRHRPPRLPRPRPRPRWPPRP,2.25
13,RRIRTRPPRLPRPRPRPMRWPRP,0.313
14,RRIRGRPPRLPRPRPRPFLVPRP,-0.0616
15,RRIRYRPPRLPRPRPRPSHDPRP,-0.916
16,RRIRERPPRLPRPRPRPDGAPRP,0.129
17,RRIRVRPPRLPRPRPRPRFPPRP,0.285
18,RRIRIRPPRLPRPRPRPKHDPRP,-0.463
19,RRIRIRPPRLPRPRPRPDHAPRP,-0.0379
20,RRIRIRPPRLPRPRPRPVMNPRP,-0.61
21,RRIRVRPPRLPRPRPRPWFGPRP,0.0293
22,RRIRARPPRLPRPRPRPLGGPRP,1.01
23,RRIRCRPPRLPRPRPRPDQFPRP,0.07
24,RRIRRRPPRLPRPRPRPKFSPRP,0.0704
25,RRIRKRPPRLPRPRPRPNLRPRP,0.211

row,Sequence,shrunken log2 fold change
1,RRIRPRPPRLPRPRPRPGSPPRP,0.0761
2,RRIRIRPPRLPRPRPRPTFMPRP,1.69
3,RRIRPRPPRLPRPRPRPCMGPRP,-0.398
4,RRIRHRPPRLPRPRPRPIWSPRP,-0.085
5,RRIRSRPPRLPRPRPRPNHKPRP,-0.738
6,RRIRGRPPRLPRPRPRPGHVPRP,0.204
7,RRIRFRPPRLPRPRPRPKTMPRP,-0.197
8,RRIRFRPPRLPRPRPRPKSVPRP,0.0124
9,RRIRVRPPRLPRPRPRPGGFPRP,0.211
10,RRIRYRPPRLPRPRPRPATPPRP,0.158
11,RRIRERPPRLPRPRPRPSYKPRP,-1.27
12,RRIRIRPPRLPRPRPRPIEDPRP,0.0806
13,RRIRYRPPRLPRPRPRPSRVPRP,-0.115
14,RRIRSRPPRLPRPRPRPTTDPRP,0.0457
15,RRIRSRPPRLPRPRPRPMYQPRP,-0.594
16,RRIRVRPPRLPRPRPRPWEHPRP,0.0927
17,RRIRFRPPRLPRPRPRPKEIPRP,-0.0277
18,RRIRYRPPRLPRPRPRPKLQPRP,0.124
19,RRIRGRPPRLPRPRPRPYQFPRP,-0.297
20,RRIRARPPRLPRPRPRPTYTPRP,-0.0355
21,RRIRPRPPRLPRPRPRPYTCPRP,-0.179
22,RRIRQRPPRLPRPRPRPKGCPRP,-0.0208
23,RRIRYRPPRLPRPRPRPRVTPRP,-0.286
24,RRIRFRPPRLPRPRPRPTGDPRP,0.127
25,RRIRTRPPRLPRPRPRPTPGPRP,0.296

row,Sequence,shrunken log2 fold change
1,RRIRNRPPRLPRPRPRPELHPRP,0.102
2,RRIRERPPRLPRPRPRPNHKPRP,-0.823
3,RRIRKRPPRLPRPRPRPWWYPRP,-0.127
4,RRIRRRPPRLPRPRPRPEPTPRP,0.543
5,RRIRGRPPRLPRPRPRPYRCPRP,-0.00655
6,RRIRMRPPRLPRPRPRPFRRPRP,-0.117
7,RRIRMRPPRLPRPRPRPALPPRP,0.363
8,RRIRMRPPRLPRPRPRPYFFPRP,-0.175
9,RRIRSRPPRLPRPRPRPLPGPRP,0.0761
10,RRIRQRPPRLPRPRPRPWCTPRP,-0.244
11,RRIRTRPPRLPRPRPRPICMPRP,-0.348
12,RRIRDRPPRLPRPRPRPHVHPRP,-0.134
13,RRIRCRPPRLPRPRPRPWSQPRP,-0.0595
14,RRIRWRPPRLPRPRPRPQFRPRP,-0.0234
15,RRIRGRPPRLPRPRPRPKDIPRP,-0.0187
16,RRIRHRPPRLPRPRPRPSIFPRP,-0.704
17,RRIRWRPPRLPRPRPRPFRGPRP,0.0269
18,RRIRHRPPRLPRPRPRPNMAPRP,-0.0808
19,RRIRARPPRLPRPRPRPHFMPRP,0.787
20,RRIRSRPPRLPRPRPRPDEPPRP,0.0784
21,RRIRYRPPRLPRPRPRPPFQPRP,-0.22
22,RRIRFRPPRLPRPRPRPGNDPRP,-0.512
23,RRIRHRPPRLPRPRPRPFHTPRP,-0.0888
24,RRIRSRPPRLPRPRPRPMAYPRP,-0.0939
25,RRIRRRPPRLPRPRPRPGNTPRP,-0.142

row,Sequence,shrunken log2 fold change
1,RRIRDRPPRLPRPRPRPCLPPRP,-0.272
2,RRIRDRPPRLPRPRPRPIKAPRP,-0.149
3,RRIRGRPPRLPRPRPRPFVIPRP,0.215
4,RRIRFRPPRLPRPRPRPLLRPRP,0.0227
5,RRIRCRPPRLPRPRPRPRIKPRP,0.0662
6,RRIRSRPPRLPRPRPRPLQLPRP,-0.456
7,RRIRKRPPRLPRPRPRPYKNPRP,-0.176
8,RRIRWRPPRLPRPRPRPRSPPRP,0.779
9,RRIRRRPPRLPRPRPRPEDEPRP,-0.0165
10,RRIRLRPPRLPRPRPRPCLEPRP,-0.052
11,RRIRQRPPRLPRPRPRPLGWPRP,0.8
12,RRIRHRPPRLPRPRPRPGAIPRP,-0.15
13,RRIRDRPPRLPRPRPRPRFEPRP,0.0618
14,RRIRQRPPRLPRPRPRPELHPRP,0.0795
15,RRIRQRPPRLPRPRPRPVRNPRP,-0.0556
16,RRIRMRPPRLPRPRPRPIKRPRP,0.0532
17,RRIRQRPPRLPRPRPRPTGLPRP,0.0999
18,RRIRTRPPRLPRPRPRPSDWPRP,0.0388
19,RRIRIRPPRLPRPRPRPLLDPRP,-0.444
20,RRIRKRPPRLPRPRPRPTHEPRP,0.267
21,RRIRVRPPRLPRPRPRPKWLPRP,0.0936
22,RRIRRRPPRLPRPRPRPEWLPRP,0.794
23,RRIRERPPRLPRPRPRPRRKPRP,0.11
24,RRIRYRPPRLPRPRPRPNVSPRP,-0.0178
25,RRIRWRPPRLPRPRPRPVQFPRP,0.0316

row,Sequence,shrunken log2 fold change
1,RRIRVRPPRLPRPRPRPYTNPRP,-0.656
2,RRIRHRPPRLPRPRPRPCISPRP,-0.13
3,RRIRQRPPRLPRPRPRPHPLPRP,-0.0478
4,RRIRLRPPRLPRPRPRPIEKPRP,0.000506
5,RRIRARPPRLPRPRPRPHKGPRP,0.187
6,RRIRDRPPRLPRPRPRPVVHPRP,0.0965
7,RRIRARPPRLPRPRPRPNYCPRP,-0.223
8,RRIRRRPPRLPRPRPRPRYMPRP,-0.378
9,RRIRKRPPRLPRPRPRPAFNPRP,-0.169
10,RRIRSRPPRLPRPRPRPCTIPRP,-0.148
11,RRIRDRPPRLPRPRPRPITTPRP,0.0735
12,RRIRARPPRLPRPRPRPSTRPRP,0.23
13,RRIRNRPPRLPRPRPRPSPLPRP,-0.334
14,RRIRLRPPRLPRPRPRPVEHPRP,-0.174
15,RRIRYRPPRLPRPRPRPETCPRP,-0.00674
16,RRIRNRPPRLPRPRPRPPIMPRP,-0.549
17,RRIRQRPPRLPRPRPRPHTSPRP,0.0894
18,RRIRDRPPRLPRPRPRPDETPRP,0.0461
19,RRIRHRPPRLPRPRPRPIIHPRP,0.142
20,RRIRPRPPRLPRPRPRPKWCPRP,0.0741
21,RRIRHRPPRLPRPRPRPLDAPRP,-0.148
22,RRIRVRPPRLPRPRPRPMDYPRP,-0.0122
23,RRIRRRPPRLPRPRPRPPLGPRP,0.998
24,RRIRQRPPRLPRPRPRPYAMPRP,-0.341
25,RRIRYRPPRLPRPRPRPFSAPRP,-1.07

row,Sequence,shrunken log2 fold change
1,RRIRWRPPRLPRPRPRPAQNPRP,0.437
2,RRIRTRPPRLPRPRPRPTWAPRP,-0.117
3,RRIRWRPPRLPRPRPRPRPYPRP,0.0357
4,RRIRHRPPRLPRPRPRPSNLPRP,-0.289
5,RRIRHRPPRLPRPRPRPRGDPRP,0.263
6,RRIRERPPRLPRPRPRPYFIPRP,-1.17
7,RRIRLRPPRLPRPRPRPQQHPRP,-0.212
8,RRIRIRPPRLPRPRPRPHPCPRP,-0.736
9,RRIRMRPPRLPRPRPRPQTVPRP,0.291
10,RRIRTRPPRLPRPRPRPSIEPRP,-0.155
11,RRIRTRPPRLPRPRPRPQADPRP,-0.297
12,RRIRERPPRLPRPRPRPEHGPRP,0.174
13,RRIRYRPPRLPRPRPRPVRHPRP,-0.245
14,RRIRERPPRLPRPRPRPVKVPRP,-0.205
15,RRIRDRPPRLPRPRPRPSIDPRP,-0.145
16,RRIRQRPPRLPRPRPRPEPFPRP,-0.00936
17,RRIRWRPPRLPRPRPRPLDMPRP,0.14
18,RRIRQRPPRLPRPRPRPMMDPRP,-0.137
19,RRIRRRPPRLPRPRPRPSRSPRP,0.139
20,RRIRARPPRLPRPRPRPDYNPRP,-0.57
21,RRIRPRPPRLPRPRPRPPHPPRP,0.292
22,RRIRPRPPRLPRPRPRPTDKPRP,0.0429
23,RRIRNRPPRLPRPRPRPDVQPRP,-0.13
24,RRIRKRPPRLPRPRPRPKIMPRP,0.193
25,RRIRARPPRLPRPRPRPVVCPRP,0.224
